According to patent publication US20220306758A1:

Target: monkey BCMA-MMH (monkey BCMA with C-terminal myc-myc-hexahistidine tag) (monkey)
Assay: SPR, Biacore, mAb captured by anti-hFc, 25 C

monkey BCMA-MMH (monkey BCMA with C-terminal myc-myc-hexahistidine tag) (monkey), sequence (chain, as listed by the source limits assumed): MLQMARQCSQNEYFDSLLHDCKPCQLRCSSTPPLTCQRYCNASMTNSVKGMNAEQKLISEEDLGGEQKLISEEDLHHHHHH

90 nM mfBCMA.mmh Bind (RU) | Binder
1.9 | mAb16747 (REGN4515) (antibody, V domains shown) VH: QVQLVESGGGLVKPGGSLRLSCAASGFTFSDYYISWIRQAPGKGLEWVSYISSSGSSIKYADSVKGRFTISRDNAKNSLYLQMNSLRAEDTAVYYCAREGGNYGMDVWGQGTTVTVSS VL: DIQMTQSPSSVSASVGDRVTITCRASQGINNWLVWYQQKPGKAPKLLIYAATSLQSGVPSRFSGSGSGTDFTLTISSLQPEDFATYYCQQANSFPPTFGQGTKLEIK
1.1 | mAb16732 (REGN4514) (antibody, V domains shown) VH: EVQLVESGGGLVQPGRSLRLSCAASGFTFDDYAMHWVRQAPGKGLEWVSGISWNSGNMGYADSVKGRFTISRDNAKNSLFLQMHSLRAEDTAFYYCAKVRLTAFDFWGQGTLVTVSS VL: DIQMTQSPSSLSASVGDRVTITCRTSQSIGNYLNWFQQKPGKAPKLLIYTASSLQNGVPSRFTGSGSGTDFTLTISSLQPEDFVIYYCQQSFSTPYTFGQGTKLEIK
